{"source": "patent US20240252613A1", "about": "(ACHELOIS BIOPHARMA, published 2024)", "binders": {"B1": {"name": "human Ceacam1-MVP (other)", "chain": "QLTTESMPFNVAEGKEVLLLVHNLPQQLFGYSWYKGERVDGNRQIVGYAIGTQQATPGPANSGRETIYPNASLLIQNVTQNDTGFYTLQVIKSDLVNEEATGQFHVYPELPKPSISSNNSNPVEDKDAVAFTCEPETQDTTYLWWINNQSLPVSPRLQLSNGNRTLTLLSVTRNDTGPYECEIQNPVSANRSDPVTLNVTYGPDTPTISPSDTYYRPGANLSLSCYAASNPPAQYSWLINGTFQQSTQELFIPNITVNNSGSYTCHANNSVTGCNRTTVKTIIVTELSPVVAKPQIKASKTTVTGDKDSVNLTCSTNDTGISIRWFFKNQSLPSSERMKLSQGNTTLSINPVKREDAGTYWCEVFNPISKNQSDPIMLNVNYNALPQENGLSPGIIQADGWMCHASKWVTTCDFRWYGPKYITHSIRSFTPSVEQCKESIEQTKQGTWLNPGFPPQSCGYATVTDAEAVIVQVTPHHVLVDEYTGEWVDSQFINGKCSNYICPTVHNSTTWHSDYKVKGLCDSNLGMLDSDLHLSSKAQVFEHPHIQDAASQLPDDESLFFGDTGLSKNPIELVEGWFSSWKSSIASFFFIIGLIIGLFLVLRVGIHLCIKLKHTKKRQIYTDIEMNRLGK", "notes": "also called Ceacam1-MVPs"}, "B2": {"name": "CD48-MVP (other)", "chain": "FQGHSIPDINATTGSNVTLKIHKDPLGPYKRITWLHTKNQKILEYNYNSTKTIFESEFKGRVYLEENNGALHISNVRKEDKGTYYMRVLRETENELKITLEVFDPVPKPSIEINKTEASTDSCHLRLSCEVKDQHVDYTWYESSGPFPKKSPGYVLDLIVTPQNKSTFYTCQVSNPVSSKNDTVYFTLPCDLARSSGVCWTATWLVVTTLIIHRILLTIIQADGWMCHASKWVTTCDFRWYGPKYITHSIRSFTPSVEQCKESIEQTKQGTWLNPGFPPQSCGYATVTDAEAVIVQVTPHHVLVDEYTGEWVDSQFINGKCSNYICPTVHNSTTWHSDYKVKGLCDSNLGMLDSDLHLSSKAQVFEHPHIQDAASQLPDDESLFFGDTGLSKNPIELVEGWFSSWKSSIASFFFIIGLIIGLFLVLRVGIHLCIKLKHTKKRQIYTDIEMNRLGK", "notes": "also called CD48-MVPs; Murine CD48-MVP"}, "B3": {"name": "ICOS-MVP (other)", "chain": "EINGSADHRMFSFHNGGVQISCKYPETVQQLKMRLFREREVLCELTKTKGSGNAVSIKNPMLCLYHLSNNSVSFFLNNPDSSQGSYYFCSLSIFDPPPFQERNLSGGYLHIYESQLCCQLKLDIIQADGWMCHASKWVTTCDFRWYGPKYITHSIRSFTPSVEQCKESIEQTKQGTWLNPGFPPQSCGYATVTDAEAVIVQVTPHHVLVDEYTGEWVDSQFINGKCSNYICPTVHNSTTWHSDYKVKGLCDSNLGMLDSDLHLSSKAQVFEHPHIQDAASQLPDDESLFFGDTGLSKNPIELVEGWFSSWKSSIASFFFIIGLIIGLFLVLRVGIHLCIKLKHTKKRQIYTDIEMNRLGK", "notes": "also called ICOS-MVPs; Murine ICOS-MVP"}, "B4": {"name": "GITR-MVP (other)", "chain": "QPSVVEEPGCGPGKVQNGSGNNTRCCSLYAPGKEDCPKERCICVTPEYHCGDPQCKICKHYPCQPGQRVESQGDIVFGFRCVACAMGTFSAGRDGHCRLWTNCSQFGFLTMFPGNKTHNAVCIPEPLPTEQYGHIIQADGWMCHASKWVTTCDFRWYGPKYITHSIRSFTPSVEQCKESIEQTKQGTWLNPGFPPQSCGYATVTDAEAVIVQVTPHHVLVDEYTGEWVDSQFINGKCSNYICPTVHNSTTWHSDYKVKGLCDSNLGMLDSDLHLSSKAQVFEHPHIQDAASQLPDDESLFFGDTGLSKNPIELVEGWFSSWKSSIASFFFIIGLIIGLFLVLRVGIHLCIKLKHTKKRQIYTDIEMNRLGK", "notes": "also called GITR-MVPs; Murine GITR-MVP"}, "B5": {"name": "4-1BB-MVP (other)", "chain": "VQNSCDNCQPGTFCRKYNPVCKSCPPSTFSSIGGQPNCNICRVCAGYFRFKKFCSSTHNAECECIEGFHCLGPQCTRCEKDCRPGQELTKQGCKTCSLGTFNDQNGTGVCRPWTNCSLDGRSVLKTGTTEKDVVCGPPVVSFSPSTTISVTPEGGPGGHSLQVLTDIIQADGWMCHASKWVTTCDFRWYGPKYITHSIRSFTPSVEQCKESIEQTKQGTWLNPGFPPQSCGYATVTDAEAVIVQVTPHHVLVDEYTGEWVDSQFINGKCSNYICPTVHNSTTWHSDYKVKGLCDSNLGMLDSDLHLSSKAQVFEHPHIQDAASQLPDDESLFFGDTGLSKNPIELVEGWFSSWKSSIASFFFIIGLIIGLFLVLRVGIHLCIKLKHTKKRQIYTDIEMNRLGK", "notes": "also called 4-1BB-MVPs; Murine 4-1BB-MVP"}, "B6": {"name": "OX40-MVP (other)", "chain": "VTARRLNCVKHTYPSGHKCCRECQPGHGMVSRCDHTRDTLCHPCETGFYNEAVNYDTCKQCTQCNHRSGSELKQNCTPTQDTVCRCRPGTQPRQDSGYKLGVDCVPCPPGHFSPGNNQACKPWTNCTLSGKQTRHPASDSLDAVCEDRSLLATLLWETQRPTFRPTTVQSTTVWPRTSELPSPPTLVTPEGPADIIQADGWMCHASKWVTTCDFRWYGPKYITHSIRSFTPSVEQCKESIEQTKQGTWLNPGFPPQSCGYATVTDAEAVIVQVTPHHVLVDEYTGEWVDSQFINGKCSNYICPTVHNSTTWHSDYKVKGLCDSNLGMLDSDLHLSSKAQVFEHPHIQDAASQLPDDESLFFGDTGLSKNPIELVEGWFSSWKSSIASFFFIIGLIIGLFLVLRVGIHLCIKLKHTKKRQIYTDIEMNRLGK", "notes": "also called OX40-MVPs; Murine OX40-MVP"}}, "key": {"[1]": {"target": "T1, human TIM-3 on transfected S293 cells (human, UniProt Q8TDQ0 22-301)", "T1 construct": "also called HAVCR2", "T1 sequence": "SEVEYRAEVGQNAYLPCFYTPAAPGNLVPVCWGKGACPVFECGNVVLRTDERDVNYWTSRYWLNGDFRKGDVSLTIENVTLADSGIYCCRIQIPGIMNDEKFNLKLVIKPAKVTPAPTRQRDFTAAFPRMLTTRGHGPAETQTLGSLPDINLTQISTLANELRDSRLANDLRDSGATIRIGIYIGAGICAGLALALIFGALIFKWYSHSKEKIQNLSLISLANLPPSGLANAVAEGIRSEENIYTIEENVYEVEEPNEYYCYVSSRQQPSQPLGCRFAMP", "assay": "FACS, dye-labeled MVP on transfected S293 cells"}, "[2]": {"target": "T1, human TIM-3 on transfected S293 cells", "assay": "FACS, unlabeled MVP on transfected cells, detected with antibody"}, "[3]": {"target": "T2, CD2 on transfected S293 cells (Mus musculus (Mouse), UniProt P08920 23-344)", "T2 sequence": "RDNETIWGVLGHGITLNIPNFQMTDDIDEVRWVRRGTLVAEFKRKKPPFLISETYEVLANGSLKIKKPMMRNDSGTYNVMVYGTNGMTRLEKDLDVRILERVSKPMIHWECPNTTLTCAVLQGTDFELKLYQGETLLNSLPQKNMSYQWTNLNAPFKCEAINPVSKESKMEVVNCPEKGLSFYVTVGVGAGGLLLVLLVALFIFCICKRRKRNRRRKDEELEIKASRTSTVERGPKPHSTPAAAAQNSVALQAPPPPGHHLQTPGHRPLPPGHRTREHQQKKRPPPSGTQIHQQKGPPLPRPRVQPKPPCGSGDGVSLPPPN", "assay": "FACS, unlabeled MVP on transfected cells, detected with antibody"}, "[4]": {"target": "T3, ICOS ligand on transfected S293 cells (Mus musculus (Mouse), UniProt Q9JHJ8 47-322)", "T3 sequence": "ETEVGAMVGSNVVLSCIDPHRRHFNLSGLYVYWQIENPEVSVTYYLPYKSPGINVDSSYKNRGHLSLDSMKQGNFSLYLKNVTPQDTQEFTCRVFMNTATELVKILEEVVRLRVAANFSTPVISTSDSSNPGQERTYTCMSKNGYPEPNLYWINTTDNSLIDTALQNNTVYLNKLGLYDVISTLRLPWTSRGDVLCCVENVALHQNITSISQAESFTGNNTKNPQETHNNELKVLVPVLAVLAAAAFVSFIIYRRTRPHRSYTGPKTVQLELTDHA", "assay": "FACS, dye-labeled MVP on transfected S293 cells"}, "[5]": {"target": "T4, GITR Ligand on transfected S293 cells (Mus musculus (Mouse), UniProt Q7TS55 1-173)", "T4 sequence": "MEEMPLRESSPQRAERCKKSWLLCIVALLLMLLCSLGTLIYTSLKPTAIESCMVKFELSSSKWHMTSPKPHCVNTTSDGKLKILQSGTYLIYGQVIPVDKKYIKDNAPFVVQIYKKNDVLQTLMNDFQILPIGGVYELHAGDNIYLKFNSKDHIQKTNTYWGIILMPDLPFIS", "assay": "FACS, dye-labeled MVP on transfected S293 cells"}, "[6]": {"target": "T4, GITR Ligand on transfected S293 cells", "assay": "FACS, unlabeled MVP on transfected cells, detected with antibody"}, "[7]": {"target": "T5, 4-1BBL on transfected S293 cells (Mus musculus (Mouse), UniProt P41274 1-309)", "T5 construct": "also called 4-1BB ligand", "T5 sequence": "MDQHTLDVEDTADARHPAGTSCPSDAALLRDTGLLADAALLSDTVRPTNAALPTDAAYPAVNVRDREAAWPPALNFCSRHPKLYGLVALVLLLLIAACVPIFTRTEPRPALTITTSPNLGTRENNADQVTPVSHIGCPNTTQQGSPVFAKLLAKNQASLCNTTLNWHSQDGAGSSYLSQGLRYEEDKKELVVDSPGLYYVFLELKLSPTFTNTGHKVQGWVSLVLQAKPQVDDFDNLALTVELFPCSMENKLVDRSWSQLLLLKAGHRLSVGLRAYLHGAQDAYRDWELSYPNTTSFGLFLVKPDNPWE", "assay": "FACS, dye-labeled MVP on transfected S293 cells"}, "[8]": {"target": "T6, OX40L on transfected S293 cells (Mus musculus (Mouse), UniProt P43488 1-198)", "T6 construct": "also called OX40 ligand", "T6 sequence": "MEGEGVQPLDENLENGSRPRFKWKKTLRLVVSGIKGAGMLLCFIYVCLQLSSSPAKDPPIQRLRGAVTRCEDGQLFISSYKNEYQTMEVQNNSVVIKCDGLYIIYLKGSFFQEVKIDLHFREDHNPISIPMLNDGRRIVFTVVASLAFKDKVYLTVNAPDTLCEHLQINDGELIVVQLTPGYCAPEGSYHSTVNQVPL", "assay": "FACS, dye-labeled MVP on transfected S293 cells"}, "[9]": {"target": "T6, OX40L on transfected S293 cells", "assay": "FACS, unlabeled MVP on transfected cells, detected with antibody"}}}
{"binder": "B1", "values": [{"measurement": "fluorescence shift relative to control MVPs", "setting": "[1]", "result": "~2", "unit": "fold"}, {"measurement": "staining shift of target+ over target- cells", "setting": "[2]", "result": "~2", "unit": "fold"}]}
{"binder": "B2", "values": [{"measurement": "staining shift of target+ over target- cells", "setting": "[3]", "result": "> 1", "unit": "log"}]}
{"binder": "B3", "values": [{"measurement": "fluorescence shift relative to control MVPs", "setting": "[4]", "result": "~2", "unit": "fold"}]}
{"binder": "B4", "values": [{"measurement": "fluorescence shift relative to control MVPs", "setting": "[5]", "result": "≥ 2", "unit": "log"}, {"measurement": "staining shift of target+ over target- cells", "setting": "[6]", "result": 1, "unit": "log"}]}
{"binder": "B5", "values": [{"measurement": "fluorescence shift relative to control MVPs", "setting": "[7]", "result": "≥ 2", "unit": "fold"}]}
{"binder": "B6", "values": [{"measurement": "fluorescence shift relative to control MVPs", "setting": "[8]", "result": "≥ 2", "unit": "fold"}, {"measurement": "staining shift of target+ over target- cells", "setting": "[9]", "result": 1, "unit": "log"}]}
